Patent US11491212

B1: FIXa-D104N/K106S/I251S/R318Y/R338E/E410N (protein)
chain 1: not shown
chain 2: not shown
B2: FIXa-R318Y/R338E/E410S (protein)
chain 1: not shown
chain 2: not shown
B3: FIXa-K247N/N249S/R318Y/R338E/E410N (protein)
chain 1: not shown
chain 2: not shown
B4: FIXa-D104N/K106S/K247N/N249S/R318Y/R338E/R403E/E410N (protein)
chain 1: not shown
chain 2: not shown
B5: FIXa-K247N/N249S/R318Y/R338E/R403E/E410N (protein)
chain 1: not shown
chain 2: not shown
B6: FIXa-D104N/K106S/Y155F/K228N/K247N/N249S (protein)
chain 1: not shown
chain 2: not shown
B7: FIXa K247N/N249S/R318Y/T343R/R403E (protein)
chain 1: not shown
chain 2: not shown
B8: FIXa Y155F/K247N/N249S/R338E/E410N (protein)
chain 1: not shown
chain 2: not shown
B9: FIXa K247N/N249S/R318Y/T343R/R403E/E410N (protein)
chain 1: not shown
chain 2: not shown
B10: FIXa Y155F/K247N/N249S/R318Y/T343R/E410N (protein)
chain 1: not shown
chain 2: not shown
B11: FIXa K247N/N249S/R318Y/R338E/T343R/E410N (protein)
chain 1: not shown
chain 2: not shown
B12: FIXa Y155F/K247N/N249S/R318Y/T343R/R403E (protein)
chain 1: not shown
chain 2: not shown
B13: FIXa Y155F/K247N/N249S/R318Y/T343R/R403E/E410N (protein)
chain 1: not shown
chain 2: not shown

molecular target: Factor X (FX), P00742
Sequence (P00742 whole entry, looked up): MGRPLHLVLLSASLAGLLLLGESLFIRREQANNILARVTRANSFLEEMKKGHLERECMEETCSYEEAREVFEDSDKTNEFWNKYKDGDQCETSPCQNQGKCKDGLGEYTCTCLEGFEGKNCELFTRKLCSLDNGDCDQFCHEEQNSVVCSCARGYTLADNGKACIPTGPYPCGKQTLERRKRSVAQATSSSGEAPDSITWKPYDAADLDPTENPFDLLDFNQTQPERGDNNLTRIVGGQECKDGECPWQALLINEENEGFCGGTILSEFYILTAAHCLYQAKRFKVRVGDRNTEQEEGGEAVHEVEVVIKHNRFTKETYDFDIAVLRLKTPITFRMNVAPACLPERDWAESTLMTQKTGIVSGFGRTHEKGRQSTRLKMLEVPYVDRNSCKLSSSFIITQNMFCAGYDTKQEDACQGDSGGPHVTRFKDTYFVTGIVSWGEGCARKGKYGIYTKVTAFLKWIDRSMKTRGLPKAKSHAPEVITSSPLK

Protein	% of WT kcat/KM (against Catalyst Biosciences WT FIXa) [%]	kcat/KM for activation of FX by FIXa in the Xase complex (FVIIIa, PC/PS vesicles, Ca2+), fluorogenic Spectrafluor FXa read-out [M⁻¹ s⁻¹]
B1	291	1.3e+08
B2	708	3.3e+08
B3	501	2.3e+08
B4	192	8.8e+07
B5	331	1.5e+08
B6	137	6.3e+07

molecular target: Factor X, P00742
Sequence (P00742 whole entry, looked up): as above

Protein	% of WT kcat/KM [%]	kcat/KM [M⁻¹ s⁻¹]
B7	84	3.9e+07
B8	1009	4.7e+08
B9	279	1.3e+08
B10	668	3.1e+08
B11	687	3.2e+08
B12	276	1.3e+08
B13	350	1.6e+08
